Assay results published in patent US20250276077A1 (IMMUNOME, published 2025).
Substitutions are numbered along the chain they refer to.

B1: AB-010690 (antibody, V domains shown)
VH: QVQLQQWGAGLLKPSETLSLTCAVYGGSFSGYYWSWIRQPPGKGLEWIGEINHRGSINYNNYNPSLKSRVTISVDTSKNQFSLKLSSVTAADTAVYYCAKPLRPHCTNGVCYSGDAFDIWGQGTMVTVAS
VL: SYVLTQPPSVSVAPGQTARITCRGNNIGYKNVHWYQQKPGQAPVLVVYDDSDRPSGIPERFSGSNSGNTATLTISRVEAGDEADYYCQVWDSSSDHVVFGGGTKLTVL
B2: AB-010679 (antibody, V domains shown)
VH: B1 VH with T107I
VL: B1 VL with R23G, R60Q
B3: AB-010680 (antibody, V domains shown)
VH: B1 VH
VL: B1 VL with R23G, K30M, R60Q
B4: AB-010688 (antibody, V domains shown)
VH: B1 VH
VL: B1 VL with R23G, R60Q, S93E
B5: AB-010682 (antibody, V domains shown)
VH: B1 VH with T107I
VL: B1 VL with R23G, Y29S, K30M, R60Q
B6: AB-010676 (antibody, V domains shown)
VH: B1 VH
VL: B1 VL with R60Q
B7: AB-010673 (antibody, V domains shown)
VH: B1 VH with G31D
VL: B1 VL with R23G, Y29S, R60Q, S93E
B8: AB-010675 (antibody, V domains shown)
VH: B1 VH with T107I
VL: B1 VL with Y29S, R60Q
B9: AB-010672 (antibody, V domains shown)
VH: B1 VH with G31D
VL: B1 VL with R23G, Y29S, R60Q, S93R
B10: AB-010685 (antibody, V domains shown)
VH: B1 VH with T107I
VL: B1 VL with R23G, R60Q, S92H
B11: AB-010678 (antibody, V domains shown)
VH: B1 VH
VL: B1 VL with Y29S, R60Q, S92H
B12: AB-010683 (antibody, V domains shown)
VH: B1 VH
VL: B1 VL with R23G, Y29S, K30M, R60Q, S92H
B13: AB-010684 (antibody, V domains shown)
VH: B1 VH with T107I
VL: B1 VL with R23G, Y29S, R60Q, S92H
B14: AB-010677 (antibody, V domains shown)
VH: B1 VH
VL: B1 VL with Y29S, K30M, R60Q
B15: AB-010692 (antibody, V domains shown)
VH: B1 VH
VL: B1 VL with Y29S, S92H
B16: AB-010686 (antibody, V domains shown)
VH: B1 VH
VL: B1 VL with R23G, Y29S, R60Q, S93R
B17: AB-010687 (antibody, V domains shown)
VH: B1 VH
VL: B1 VL with R23G, Y29S, R60Q, S93E
B18: AB-010681 (antibody, V domains shown)
VH: B1 VH
VL: B1 VL with R23G, R60Q, S92H
B19: AB-010674 (antibody, V domains shown)
VH: B1 VH with G31D
VL: B1 VL with R23G, R60Q, S93E
B20: AB-010691 (antibody, V domains shown)
VH: B1 VH
VL: B1 VL with Y29S, K30M
B21: AB-010689 (antibody, V domains shown)
VH: B1 VH with T107I
VL: B1 VL with Y29S
B22: AB-010358 (antibody, mouse IgG2a, V domains shown)
VH: B1 VH with G31D
VL: B1 VL with R23G, Y29S, V97L
B23: AB-010364 (antibody, mouse IgG2a, V domains shown)
VH: B1 VH with R54A
VL: B1 VL with R23G, Y29S, R60Q
B24: AB-010367 (antibody, V domains shown)
VH: B1 VH with R54Q
VL: B1 VL with R23G, Y29S
B25: AB-010362 (antibody, mouse IgG2a, V domains shown)
VH: B1 VH
VL: B1 VL with R23G, Y29S, V97L
B26: AB-010366 (antibody, mouse IgG2a, V domains shown)
VH: B1 VH with R54Q
VL: B1 VL with R23G, Y29S, R60Q
B27: AB-010359 (antibody, V domains shown)
VH: B1 VH with G31D
VL: B1 VL with R23G, Y29S
B28: AB-010365 (antibody, V domains shown)
VH: B1 VH with R54A
VL: B1 VL with R23G, Y29S
B29: AB-010360 (antibody, mouse IgG2a, V domains shown)
VH: B1 VH
VL: B1 VL with R23G, Y29S, R60Q, V97L

These binders were tested against T1, Human EphA2 (ephrin receptor A2) on cells (human, UniProt P29317 25-976) (assay: cell-based or functional assay).
T1 sequence (P29317 25-976): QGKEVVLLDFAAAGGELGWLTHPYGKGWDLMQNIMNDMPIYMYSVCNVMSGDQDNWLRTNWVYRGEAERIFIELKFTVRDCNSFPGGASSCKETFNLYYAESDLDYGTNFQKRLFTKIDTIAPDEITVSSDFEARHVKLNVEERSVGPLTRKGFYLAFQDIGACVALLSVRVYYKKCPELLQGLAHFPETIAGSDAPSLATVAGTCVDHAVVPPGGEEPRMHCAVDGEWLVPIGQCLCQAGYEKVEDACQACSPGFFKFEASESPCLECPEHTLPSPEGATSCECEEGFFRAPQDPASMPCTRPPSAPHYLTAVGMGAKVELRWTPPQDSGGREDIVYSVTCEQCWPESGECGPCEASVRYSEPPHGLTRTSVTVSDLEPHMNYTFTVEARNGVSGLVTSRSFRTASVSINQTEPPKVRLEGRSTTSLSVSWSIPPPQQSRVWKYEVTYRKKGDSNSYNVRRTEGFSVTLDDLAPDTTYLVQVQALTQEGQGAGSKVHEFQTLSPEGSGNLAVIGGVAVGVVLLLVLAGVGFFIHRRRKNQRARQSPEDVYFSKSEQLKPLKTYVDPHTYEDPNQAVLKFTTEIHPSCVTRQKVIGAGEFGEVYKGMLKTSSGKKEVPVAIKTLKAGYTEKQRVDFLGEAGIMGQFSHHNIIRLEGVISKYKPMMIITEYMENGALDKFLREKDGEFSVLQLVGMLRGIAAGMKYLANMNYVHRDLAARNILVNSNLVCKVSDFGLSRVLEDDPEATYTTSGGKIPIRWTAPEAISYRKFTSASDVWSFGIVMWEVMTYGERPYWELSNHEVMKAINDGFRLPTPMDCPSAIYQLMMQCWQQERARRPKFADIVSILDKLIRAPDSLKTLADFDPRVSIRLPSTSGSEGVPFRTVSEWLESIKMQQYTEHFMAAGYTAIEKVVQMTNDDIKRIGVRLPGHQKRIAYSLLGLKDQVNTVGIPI

Row | Binder | ADCC - EC50 (nM), Trial 1, A549 | ADCC - EC50 (nM), Trial 2, A549
1 | B1 | 0.19 nM | 
2 | B2 | ~0.15 nM | 0.04 nM
3 | B3 | ~0.081 nM | 0.031 nM
4 | B4 | ~0.052 nM | 0.032 nM
5 | B5 | 3.2 nM | 
6 | B6 | ~0.1 nM | 0.039 nM
7 | B7 | 3.9 nM | 
8 | B8 | 1.5 nM | 
9 | B9 | 12.4 nM | 
10 | B10 | < 0.03 nM | 0.0057 nM
11 | B11 | ~0.14 nM | 0.047 nM
12 | B12 | ~0.14 nM | 0.046 nM
13 | B13 | ~0.14 nM | 0.048 nM
14 | B14 | 1.6 nM | 
15 | B15 | 0.21 nM | 
16 | B16 | 6.4 nM | 
17 | B17 | 2.8 nM | 
18 | B18 | < 0.03 nM | 0.0079 nM
19 | B19 | ~0.13 nM | 0.1 nM
20 | B20 | 2.2 nM | 
21 | B21 | 2.5 nM | 

Target: T1, Human EphA2 (ephrin receptor A2) on …
Test: cell-based or functional assay
Remark: another data set of the same source

Row | Binder | ADCC EC50 | ADCC Fold-improved (against AB-008873)
22 | B22 | 73.3 nM | 0.47 fold
23 | B23 | 14.5 nM | 2.4 fold
24 | B24 | 42.7 nM | 0.81 fold
25 | B25 | 12.8 nM | 2.72 fold
26 | B26 | 28.9 nM | 1.2 fold
27 | B27 | 25.3 nM | 1.38 fold
28 | B28 | 34.6 nM | 1.01 fold
29 | B29 | 4.3 nM | 8.09 fold
